This note sets out measurements from patent US20220251170A1 (KOREA INSTITUTE OF SCIENCE AND TECHNOLOGY, published 2022).

This experiment addresses T1, human CD47 on the surface of HT29 and Raji tumor cells (human, UniProt Q08722 19-323).
T1 construct: whole, on cells; also called cell surface CD47
Description: cell binding assay, flow cytometry, anti-Myc detection (FIG. 15A). How it is done:
Cell binding analysis according to one embodiment of the present invention was carried out by culturing HT29 human colon adenocarcinoma (ATCC), Raji human B cell lymphoma (ATCC) and CT26.CL25 mouse colon cancer cells (ATCC) in RPMI-1640 culture medium supplemented with 10% FBS and 1% antibiotics and the cultures were maintained at 37° C. and 5% CO₂. HT29 and Raji cells were then cultured with the addition of an anti-human CD47 antibody (B6H12.2, Abcam, ab3283) and CT26.CL25 cells were incubated with anti-mouse CD47 antibody (Santa Cruz, sc-12731). For cell binding assays, HT29, Raji and CT26.CL25 cells (1×10⁶) were incubated at 4° C. for 30 minutes with the addition of PBS, exosomes or mSIRPα, respectively. The cells were then incubated with anti-Myc antibodies (1:400, Abcam, ab9106) and detected by the addition of Alexa fluor 488-conjugated secondary antibody (1:800, Jackson ImmunoResearch). The cells were then measured using an Accuri™ C6 flow cytometer (BD Biosciences) and analyzed using FlowJo_V10 software (FlowJo). The binding specificity of SIRPα-exosomes to CD47 was analyzed by block experiments through pre-incubation of cells with anti-human CD47 antibody (1:100, Abcam, ab3283).
A general note: In flow cytometry, cells or beads pass a laser one at a time.

T1 sequence (Q08722 19-323): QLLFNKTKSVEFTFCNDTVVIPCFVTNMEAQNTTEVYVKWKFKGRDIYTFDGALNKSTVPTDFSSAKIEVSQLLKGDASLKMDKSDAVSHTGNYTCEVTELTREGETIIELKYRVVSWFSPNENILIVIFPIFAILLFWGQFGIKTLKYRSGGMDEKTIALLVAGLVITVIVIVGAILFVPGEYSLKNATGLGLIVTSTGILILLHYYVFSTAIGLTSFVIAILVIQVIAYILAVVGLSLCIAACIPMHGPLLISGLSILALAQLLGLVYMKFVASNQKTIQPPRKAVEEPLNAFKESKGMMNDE

B1: purified recombinant SIRPα-Myc monomer protein (mSIRPα) (receptor)
chain: EEELQIIQPDKSVLVAAGETATLRCTITSLFPVGPIQWFRGAGPGRVLIYNQRQGPFPRVTTVSDTTKRNNMDFSIRIGNITPADAGTYYCIKFRKGSPDDVEFKSGAGTELSVRAKP
notes: Expressed in bacteria from pET-28a (Nde I-SIRPα variant-Myc-Hind III), purified on Ni-NTA; also called monomeric SIRPα protein; recombinant SIRPα protein; not shown: N-terminal histidine tag from pET-28a; C-terminal Myc tag
As to B1, the binding result is “binds”.
